# In article PMC6888979 (The Journal of Experimental Medicine, 2019):
# B1: soluble recombinant ectodomain of murine FIBCD1 (mFIBCD1^Ecto) (domain or fragment)
# chain: NHTHTPGTAPPPIVSTGTAGANSALVTVERADSSHLSLLIDPRCPDLTDSFARLEGIQASILRALSEHQAQPRLDGAPELLDALADQLPRLLTRASELQAECAGLRKGHSLLGQGLSTLQSEQGRLIQLLSESQGHMAHLVNSVSDVLEALQRERGLGRPRVKADLQRAPSRGARPRGCANGSRPRDCLDVLLSGQQDDGVYSIFPTHYPAGFQVYCDMRTDGGGWTVFQRREDGSVNFFRGWEAYREGFGKLTGEHWLGLKRIHALTTQAAYELHVDLEDFDNGTAYAHYGSFGVGLFSVDPEEDGYPLTVADYSGTAGDSLLKHSGMRFTTKDRDSDHSENNCAAFYRGAWWYRNCHTSNLNGQYLRGAHASYADGVEWSSWTGWQYSLKFSEMKIRPVREDR
# Target: the molecule itself
protein,measurement,value
B1,stoichiometry N,4
